Assay results as given in patent US20140213531A1 (POLYPHOR, published 2014).
Bridges are numbered along the chain shown (N, C = ends). [ ]: non-standard residue; d: D form. Nle = CCCC[C@H](N)C(=O)O

T1: CathepsinG, from human neutrophils (human, UniProt P08311 21-244)
T1 sequence (looked up): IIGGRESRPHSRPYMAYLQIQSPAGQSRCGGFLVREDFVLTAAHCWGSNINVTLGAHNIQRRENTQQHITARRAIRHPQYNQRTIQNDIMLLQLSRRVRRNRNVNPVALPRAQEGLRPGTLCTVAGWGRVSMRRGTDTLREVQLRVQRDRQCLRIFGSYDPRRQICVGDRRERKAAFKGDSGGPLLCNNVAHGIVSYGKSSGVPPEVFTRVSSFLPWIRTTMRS

T2: Elastase from human neutrophils (human, UniProt P08246 30-247, limits assumed)
T2 sequence (looked up): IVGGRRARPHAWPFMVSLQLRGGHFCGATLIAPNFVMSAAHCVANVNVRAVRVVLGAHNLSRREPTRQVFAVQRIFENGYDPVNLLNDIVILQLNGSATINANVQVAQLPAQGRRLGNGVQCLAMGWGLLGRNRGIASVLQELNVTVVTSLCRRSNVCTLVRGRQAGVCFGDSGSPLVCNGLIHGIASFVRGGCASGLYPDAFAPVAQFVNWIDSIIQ

T3: Chymase, from human skin (human, UniProt P23946 22-247)
T3 sequence (looked up): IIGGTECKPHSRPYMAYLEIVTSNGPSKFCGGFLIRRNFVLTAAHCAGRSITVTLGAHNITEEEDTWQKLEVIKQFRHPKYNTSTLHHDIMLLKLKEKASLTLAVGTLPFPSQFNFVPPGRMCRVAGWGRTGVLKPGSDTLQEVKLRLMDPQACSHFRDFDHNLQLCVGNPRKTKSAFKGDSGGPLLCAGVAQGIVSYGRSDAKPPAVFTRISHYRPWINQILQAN


Columns and labels:
Assay in all cases: cell-based or functional assay
[1] = target: T1, CathepsinG, from human neutrophils
[2] = target: Urokinase from human urine (human, UniProt P00749 21-431, limits assumed)
[3] = target: Tryptase, from human lung (human, UniProt Q15661 31-275, limits assumed)
[4] = target: T2, Elastase from human neutrophils
Chymase, from human skin = target: T3, Chymase, from human skin
[5] = target: Trypsin, Iodination grade, from human pancreas (human, UniProt P07477 24-247)
[6] = target: Thrombin, from Human Plasma, high activity (human, UniProt P00734 328-622)
[7] = target: Chymotrypsin, from human pancreas (human, UniProt P17538 19-263)
Chain of Chymotrypsin, from human pancreas (P17538 19-263): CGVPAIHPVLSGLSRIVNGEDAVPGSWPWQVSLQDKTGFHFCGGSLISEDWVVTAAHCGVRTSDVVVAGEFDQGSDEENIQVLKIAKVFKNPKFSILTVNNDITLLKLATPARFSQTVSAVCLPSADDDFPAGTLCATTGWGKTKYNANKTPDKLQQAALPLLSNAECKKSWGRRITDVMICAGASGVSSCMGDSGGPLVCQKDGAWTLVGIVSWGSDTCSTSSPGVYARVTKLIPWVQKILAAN

Chain of Tryptase, from human lung (Q15661 31-275 limits assumed): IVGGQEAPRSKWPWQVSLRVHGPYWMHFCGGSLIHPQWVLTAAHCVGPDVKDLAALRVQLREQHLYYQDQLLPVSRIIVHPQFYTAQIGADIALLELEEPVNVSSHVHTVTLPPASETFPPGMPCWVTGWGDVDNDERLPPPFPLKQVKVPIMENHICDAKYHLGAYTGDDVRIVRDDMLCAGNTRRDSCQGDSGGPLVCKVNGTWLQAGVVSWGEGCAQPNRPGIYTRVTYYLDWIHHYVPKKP

Binder	IC50 [1]	% inhibition at 100 µM [2]	% inhibition at 100 µM [3]	IC50 [4]	% inhibition at 100 µM (Chymase, from human skin)	% inhibition at 100 µM [5]	% inhibition at 100 µM [6]	% inhibition at 100 µM [7]
XCTKSDPPICN (HELM PEPTIDE1{[O=C([C@@H](N[*:1])C1CCCCC1)[*:2]].C.T.K.S.D.P.P.I.C.N.[dP].P}$PEPTIDE1,PEPTIDE1,2:R3-10:R3|PEPTIDE1,PEPTIDE1,1:R1-13:R2$$$V2.0; SMILES CC[C@H](C)[C@@H]1NC(=O)[C@@H]2CCCN2C(=O)[C@@H]2CCCN2C(=O)[C@H](CC(=O)O)NC(=O)[C@H](CO)NC(=O)[C@H](CCCCN)NC(=O)[C@H]([C@@H](C)O)NC(=O)[C@@H]2CSSC[C@H](NC1=O)C(=O)N[C@@H](CC(N)=O)C(=O)N1CCC[C@@H]1C(=O)N1CCC[C@H]1C(=O)N[C@@H](C1CCCCC1)C(=O)N2) [Example 37]	35 nmol	5%	56%	–	–	–	–	–
ICTKSDPPYCR (HELM PEPTIDE1{I.C.T.K.S.D.P.P.Y.C.R.[dP].P}$PEPTIDE1,PEPTIDE1,2:R3-10:R3|PEPTIDE1,PEPTIDE1,1:R1-13:R2$$$V2.0; SMILES CC[C@H](C)[C@@H]1NC(=O)[C@@H]2CCCN2C(=O)[C@H]2CCCN2C(=O)[C@H](CCCNC(=N)N)NC(=O)[C@@H]2CSSC[C@H](NC1=O)C(=O)N[C@@H]([C@@H](C)O)C(=O)N[C@@H](CCCCN)C(=O)N[C@@H](CO)C(=O)N[C@@H](CC(=O)O)C(=O)N1CCC[C@H]1C(=O)N1CCC[C@H]1C(=O)N[C@@H](Cc1ccc(O)cc1)C(=O)N2) [Example 18]	47 nmol	–	88.3%	> 100000 nmol	32.5%	84%	0%	25%
cyclo([Nle]CTKSDPPICT[dP]P) (disulfide 2-10) [Example 42]	46 nmol	7%	0%	–	–	–	–	–
XCTKSDPPYCY (HELM PEPTIDE1{[O=C([C@@H](N[*:1])C1CCCCC1)[*:2]].C.T.K.S.D.P.P.Y.C.Y.[dP].P}$PEPTIDE1,PEPTIDE1,2:R3-10:R3|PEPTIDE1,PEPTIDE1,1:R1-13:R2$$$V2.0; SMILES C[C@@H](O)[C@@H]1NC(=O)[C@@H]2CSSC[C@H](NC(=O)[C@H](Cc3ccc(O)cc3)NC(=O)[C@@H]3CCCN3C(=O)[C@@H]3CCCN3C(=O)[C@H](CC(=O)O)NC(=O)[C@H](CO)NC(=O)[C@H](CCCCN)NC1=O)C(=O)N[C@@H](Cc1ccc(O)cc1)C(=O)N1CCC[C@@H]1C(=O)N1CCC[C@H]1C(=O)N[C@@H](C1CCCCC1)C(=O)N2) [Example 65]	47 nmol	1%	57%	–	–	–	–	–
ICTXSDPPICR (HELM PEPTIDE1{I.C.T.[Nle].S.D.P.P.I.C.R.[dP].P}$PEPTIDE1,PEPTIDE1,2:R3-10:R3|PEPTIDE1,PEPTIDE1,1:R1-13:R2$$$V2.0; SMILES CCCC[C@@H]1NC(=O)[C@H]([C@@H](C)O)NC(=O)[C@@H]2CSSC[C@H](NC(=O)[C@H]([C@@H](C)CC)NC(=O)[C@@H]3CCCN3C(=O)[C@@H]3CCCN3C(=O)[C@H](CC(=O)O)NC(=O)[C@H](CO)NC1=O)C(=O)N[C@@H](CCCNC(=N)N)C(=O)N1CCC[C@@H]1C(=O)N1CCC[C@H]1C(=O)N[C@@H]([C@@H](C)CC)C(=O)N2) [Example 22]	55 nmol	5.7%	3.8%	> 100000 nmol	98.8%	84%	–	0%
FCTKSDPPICS (HELM PEPTIDE1{F.C.T.K.S.D.P.P.I.C.S.[dA].P}$PEPTIDE1,PEPTIDE1,2:R3-10:R3|PEPTIDE1,PEPTIDE1,1:R1-13:R2$$$V2.0; SMILES CC[C@H](C)[C@@H]1NC(=O)[C@@H]2CCCN2C(=O)[C@@H]2CCCN2C(=O)[C@H](CC(=O)O)NC(=O)[C@H](CO)NC(=O)[C@H](CCCCN)NC(=O)[C@H]([C@@H](C)O)NC(=O)[C@@H]2CSSC[C@H](NC1=O)C(=O)N[C@@H](CO)C(=O)N[C@H](C)C(=O)N1CCC[C@H]1C(=O)N[C@@H](Cc1ccccc1)C(=O)N2) [Example 49]	82 nmol	6.2%	30.5%	> 10000 nmol	0%	96%	7.9%	0%
ICTKSDPPYCR (HELM PEPTIDE1{I.C.T.K.S.D.P.P.Y.C.R.[dP].P}$PEPTIDE1,PEPTIDE1,2:R3-10:R3|PEPTIDE1,PEPTIDE1,1:R1-13:R2$$$V2.0; SMILES CC[C@H](C)[C@@H]1NC(=O)[C@@H]2CCCN2C(=O)[C@H]2CCCN2C(=O)[C@H](CCCNC(=N)N)NC(=O)[C@@H]2CSSC[C@H](NC1=O)C(=O)N[C@@H]([C@@H](C)O)C(=O)N[C@@H](CCCCN)C(=O)N[C@@H](CO)C(=O)N[C@@H](CC(=O)O)C(=O)N1CCC[C@H]1C(=O)N1CCC[C@H]1C(=O)N[C@@H](Cc1ccc(O)cc1)C(=O)N2) [Example 56]	47 nmol	–	88.3%	> 100000 nmol	32.5%	84%	0%	25%
ICTXSDPPICR (HELM PEPTIDE1{I.C.T.[Nle].S.D.P.P.I.C.R.[dP].P}$PEPTIDE1,PEPTIDE1,2:R3-10:R3|PEPTIDE1,PEPTIDE1,1:R1-13:R2$$$V2.0; SMILES CCCC[C@@H]1NC(=O)[C@H]([C@@H](C)O)NC(=O)[C@@H]2CSSC[C@H](NC(=O)[C@H]([C@@H](C)CC)NC(=O)[C@@H]3CCCN3C(=O)[C@@H]3CCCN3C(=O)[C@H](CC(=O)O)NC(=O)[C@H](CO)NC1=O)C(=O)N[C@@H](CCCNC(=N)N)C(=O)N1CCC[C@@H]1C(=O)N1CCC[C@H]1C(=O)N[C@@H]([C@@H](C)CC)C(=O)N2) [Example 59]	55 nmol	5.7%	3.8%	> 100000 nmol	98.8%	84%	–	0%
ICTKSDPPQCR (HELM PEPTIDE1{I.C.T.K.S.D.P.P.Q.C.R.[dP].P}$PEPTIDE1,PEPTIDE1,2:R3-10:R3|PEPTIDE1,PEPTIDE1,1:R1-13:R2$$$V2.0; SMILES CC[C@H](C)[C@@H]1NC(=O)[C@@H]2CCCN2C(=O)[C@H]2CCCN2C(=O)[C@H](CCCNC(=N)N)NC(=O)[C@@H]2CSSC[C@H](NC1=O)C(=O)N[C@@H]([C@@H](C)O)C(=O)N[C@@H](CCCCN)C(=O)N[C@@H](CO)C(=O)N[C@@H](CC(=O)O)C(=O)N1CCC[C@H]1C(=O)N1CCC[C@H]1C(=O)N[C@@H](CCC(N)=O)C(=O)N2) [Example 17]	55 nmol	–	90.4%	> 100000 nmol	27.6%	90%	0%	16%
